# Reference: patent US20190062438A1 (CSL, published 2019)
# Numbering of substitutions follows the chain as printed. Values joined by “and” are separate entries in the source; they are usually repeats but may differ in a detail not shown here. Equal entries are not always repeated.
# T1: shCD131 H367A (human, UniProt P32927 17-438)
# T1 construct: C-terminal 6xHis
# T1 sequence: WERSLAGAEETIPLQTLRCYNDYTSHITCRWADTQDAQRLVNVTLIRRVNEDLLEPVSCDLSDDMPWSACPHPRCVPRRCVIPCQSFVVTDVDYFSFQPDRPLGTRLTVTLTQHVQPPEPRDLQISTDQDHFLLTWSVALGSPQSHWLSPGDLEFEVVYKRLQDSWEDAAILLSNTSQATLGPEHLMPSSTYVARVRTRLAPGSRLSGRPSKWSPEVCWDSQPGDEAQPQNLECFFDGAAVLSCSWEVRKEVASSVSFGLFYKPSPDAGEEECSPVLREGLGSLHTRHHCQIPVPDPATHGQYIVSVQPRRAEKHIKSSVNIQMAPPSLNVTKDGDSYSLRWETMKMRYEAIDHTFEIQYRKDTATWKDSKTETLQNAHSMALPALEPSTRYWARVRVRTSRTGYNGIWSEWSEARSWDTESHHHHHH
# T2: shCD131 G423A (human, UniProt P32927 17-438)
# T2 construct: C-terminal 6xHis
# T2 sequence: T1 sequence with A351H, G407A
# T3: shCD131 M340A (human, UniProt P32927 17-438)
# T3 construct: C-terminal 6xHis
# T3 sequence: T1 sequence with M324A, A351H
# T4: shCD131 I368A (human, UniProt P32927 17-438)
# T4 construct: C-terminal 6xHis
# T4 sequence: T1 sequence with A351H, I352A
# B1: 9A2 Fab (Fab, V domains shown)
# VH: EVQLLESGGGLVQPGGSLRLSCAASGFTFSHYHMLWVRQAPGKGLEWVSSIRSSGGFTYYADSVKGRFTISRDNSKNTLYLQMNSLRAEDTAVYYCARFYDSFFDIWGQGTMVTVSS
# VL: DIQMTQSPSSVSASVGDRVTITCRASQGISSWLAWYQQKPGKAPKLLIYAASSLQSGVPSRFSGSGSGTDFTLTISSLQPEDFATYYCQQANSFPITFGQGTRLEIKR
# notes: also called recombinant Fab of 9A2
# Assays:
# Assay in all cases: SPR, steady state, Fab over captured mutant
# [1] = target: T1, shCD131 H367A
# Procedure: (§1) For some analysis purified Fab was injected over each flow cell for 3 minutes and dissociation was monitored for a further 10 minutes. Regeneration of the surface was performed after each cycle with a 40 second injection of 25 mM glycine, pH 2.0. The analysis was performed with Fabs at several concentrations between 100 and 0.31 nM, with each concentration analyzed twice and in random order. The analysis was performed at a flow rate of 30 μl/min in HBS-EP buffer (10 mM Hepes, 150 mM NaCl, 3 mM EDTA, 0.005% Tween 20, pH 7.4) at 37° C. Responses from spots 2 and 4 of each flow cell, (in which shβc was not captured, but otherwise treated identically), were subtracted from those of spots 1 and 5 respectively to produce reference subtracted data. Reference subtracted responses from a blank injection comprising buffer alone were subtracted from the resultant sensorgrams to produce double referenced data suitable for kinetic analysis. Double-referenced sensorgrams were fitted using non-linear regression to a model describing 1:1 kinetics, including a term for mass transport limitation. The Rₘₐₓ value was fitted locally to account for slight deviations in the level of sCD131 captured, with association rate (kₐ), dissociation rate (kd) and equilibrium dissociation constant (KD) fitted globally.
# (§2) Mapping of the shCD131 epitope was performed by measurement of the affinity of Fabs for various alanine point mutants of shCD131 essentially as described above, with the following exceptions. Each shCD131 mutant was captured for 120 seconds at concentrations between 1 and 5 μg/ml. For kinetic analysis, purified recombinant Fabs were injected for 2 minutes, and dissociation was monitored for a further 2 minutes. […] Fab concentrations ranged from 16 μM to 3.9 nM in two-fold dilutions. The assays were conducted at 25° C. All sensorgrams were reference subtracted as described above. For determination of steady-state affinity (KD only), the response at the end of the binding phase was used to fit the data to a single-site binding model. Kinetic parameters were determined as described above.
# [2] = target: T2, shCD131 G423A
# Procedure: as §1, §2
# [3] = target: T3, shCD131 M340A
# Procedure: as §1, §2
# [4] = target: T4, shCD131 I368A
# Procedure: as §1, §2
binder,measurement,setting,value
B1,Kd,[1],10.3 µM and 10.8 µM
same,Kd,[2],197 nM
same,Kd,[3],235 nM
same,Kd,[4],4.77 µM
